The supplement of paper PMC10567573
± gives the standard deviation.

Experiment: protein stability index of a GFP-peptide fusion (GPS, HEK-293T) (PSI 1-6); higher = more stable
[1] = treatment: DMSO, c terminus: a fixed tail appended
[2] = treatment: MLN4924 1 uM, 8 h, c terminus: a fixed tail appended
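Note: 24-mer peptide tiles fused after GFP, lentivirally expressed, FACS-sorted into six equal bins by GFP/DsRed ratio, decoded by Illumina sequencing, PSI is the read-weighted mean bin number.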

Row | Sequence | protein stability index [1] | protein stability index [2] | protein stability index (treatment: DMSO, c terminus: native) | protein stability index (treatment: MLN4924 1 uM, 8 h, c terminus: native)
1 | VSSSVIEQLFFVRLVGKTPIETLI [NR2F2] | 2.74 ± 0.58 | 3.05 ± 0.37 |  | 
2 | VSTGSTDNSPTSNSLEGGTDATAF [ADAMTSL2] | 4.97 ± 0.28 | 5.31 ± 0.28 |  | 
3 | VTTRQVRTIVEEVQDGKVISSREQ [KRT17] | 4.87 ± 0.3 | 4.87 ± 0.36 |  | 
4 | VVAILAAACLLQLDGLIQQCGETM [GMCL1] | 3.23 ± 0.42 | 2.92 ± 0.39 |  | 
5 | WELGGGTSLLDLISIPITGDTLRT [DYNC2LI1] | 2.22 ± 0.32 | 2.36 ± 0.22 |  | 
6 | WEVQVSPTCPVCKDRASPADLRTN [TRIM35] | 3.2 ± 0.43 | 3.61 ± 0.27 |  | 
7 | WEYPGSQGSPAVDKERFTTLVQDL [CHIT1] | 3.9 ± 0.25 | 3.89 ± 0.19 |  | 
8 | WGKRKNKPKMNYEKLSRGLRYYYD [ETS2] | 2.52 ± 0.26 | 2.51 ± 0.43 |  | 
9 | WLYCYDPVMDVWARKQDMNTKRAI [KLHL14] | 2.07 ± 0.28 | 2.53 ± 0.55 |  | 
10 | WMPPPSRADSFKVSYQLADGGEPQ [TNXB] | 4.03 ± 0.44 | 4.23 ± 0.64 |  | 
11 | WSVTGKAEPAMPGRLYVHPDSPAT [TBX5] | 3.67 ± 0.17 | 3.62 ± 0.22 |  | 
12 | WTRITCAEEGWSPTPKCLRLCFFP [CFHR2] | 2.82 ± 0.71 | 2.6 ± 0.46 |  | 
13 | WYLKEEDHYQRVKREREKEDIALN [RHOBTB1] | 3.94 ± 0.18 | 3.955 ± 0.027 |  | 
14 | WYQVRCLFQSPLFAKAGDTLSGTC [CARM1] | 2.77 ± 0.72 | 2.35 ± 0.53 |  | 
15 | WYSPYAKTLQPTKQPNCSSLFKLK [PLD5] | 2.32 ± 0.21 | 2.79 ± 0.21 |  | 
16 | YAPVGFCLLVLRLFLGIHVFLVSC [AUP1] | 3.14 ± 1 | 2.88 ± 0.35 |  | 

Row | Sequence | protein stability index [1] | protein stability index [2] | protein stability index (treatment: DMSO, c terminus: native) | protein stability index (treatment: MLN4924 1 uM, 8 h, c terminus: native)
17 | YCLLSDHGCEYSCVNMDRSFACQC [MATN2] | 2.81 ± 0.54 | 2.95 ± 0.59 |  | 
18 | YETKKHLVQLPNINRVSTCYSEEI [PPEF2] | 3.33 ± 0.32 | 3.23 ± 0.53 |  | 
19 | YFTKSGFHPDPRQKALYRRLATVH [CLPTM1] | 2.12 ± 0.41 | 2.35 ± 0.22 |  | 
20 | YFYMSCLVKHKRIHSREKRGDSVK [ZNF649] | 1.73 ± 0.16 | 2.38 ± 0.55 |  | 
21 | YGDWTSGENSDGCYEHFAELDIPQ [CLPTM1] | 4.54 ± 0.23 | 4.63 ± 0.26 |  | 
22 | YGLRGPHKADSIQGTARTLSPVLE [TNXB] | 3.93 ± 0.36 | 3.84 ± 0.14 |  | 
23 | YIKVDWQRVEKDMKKAKEQLKIRK [FUNDC2] | 2.46 ± 0.61 | 2.94 ± 0.74 |  | 
24 | YIPSYTSWYPSAHQEAMQQPQLM [DLX1] |  |  | 2.63 ± 0.36 | 2.44 ± 0.26
25 | YLWMCSTLALLLNFLACLASFCVE [SCAMP3] | 3.53 ± 0.36 | 3.02 ± 0.12 |  | 
26 | YMSINTHLGKEQSRRDDLEALGHM [CSNK1G1] | 3.28 ± 0.19 | 3.74 ± 0.29 |  | 
27 | YNNQSLGHGSHSFIYYENMLLGVP [PKD2L1] | 2.16 ± 0.21 | 2.23 ± 0.37 |  | 
28 | YQRFRQKSKASFLLLASGLVITDF [PTGFR] | 2.65 ± 0.21 | 2.49 ± 0.7 |  | 
29 | YSEYPECCVDVKPISQEKIESERA [DUSP5] | 4.57 ± 0.39 | 4.69 ± 0.66 |  | 
30 | YVEIRTFEPRLLVQSIELQRPRFI [VPS39] | 2.33 ± 0.76 | 2.65 ± 0.7 |  | 
31 | YVLEFSDHPGIHEPLEPEVKYVGN [CPN1] | 3.17 ± 0.27 | 3.3 ± 0.1 |  | 
